Consider two substances from paper PMC12088458.

What all share (assay): BioID proximity labelling, biotin pull-down, mass spectrometry
Common to all, as to conditions: HEK293T, n = 3, over EV-BirA control, read off a plot

For assay [1], the target named is SMARCA4 (UniProt P51532).
Assay [2] addresses TRRAP (UniProt Q9Y4A5).
Assay [3] deals with DDX3X (UniProt O00571).
Assay [4] deals with β-catenin (UniProt P35222).
The target in assay [5] is SMARCA5 (UniProt O60264).
UniProt O60264, sequence (O60264 whole entry): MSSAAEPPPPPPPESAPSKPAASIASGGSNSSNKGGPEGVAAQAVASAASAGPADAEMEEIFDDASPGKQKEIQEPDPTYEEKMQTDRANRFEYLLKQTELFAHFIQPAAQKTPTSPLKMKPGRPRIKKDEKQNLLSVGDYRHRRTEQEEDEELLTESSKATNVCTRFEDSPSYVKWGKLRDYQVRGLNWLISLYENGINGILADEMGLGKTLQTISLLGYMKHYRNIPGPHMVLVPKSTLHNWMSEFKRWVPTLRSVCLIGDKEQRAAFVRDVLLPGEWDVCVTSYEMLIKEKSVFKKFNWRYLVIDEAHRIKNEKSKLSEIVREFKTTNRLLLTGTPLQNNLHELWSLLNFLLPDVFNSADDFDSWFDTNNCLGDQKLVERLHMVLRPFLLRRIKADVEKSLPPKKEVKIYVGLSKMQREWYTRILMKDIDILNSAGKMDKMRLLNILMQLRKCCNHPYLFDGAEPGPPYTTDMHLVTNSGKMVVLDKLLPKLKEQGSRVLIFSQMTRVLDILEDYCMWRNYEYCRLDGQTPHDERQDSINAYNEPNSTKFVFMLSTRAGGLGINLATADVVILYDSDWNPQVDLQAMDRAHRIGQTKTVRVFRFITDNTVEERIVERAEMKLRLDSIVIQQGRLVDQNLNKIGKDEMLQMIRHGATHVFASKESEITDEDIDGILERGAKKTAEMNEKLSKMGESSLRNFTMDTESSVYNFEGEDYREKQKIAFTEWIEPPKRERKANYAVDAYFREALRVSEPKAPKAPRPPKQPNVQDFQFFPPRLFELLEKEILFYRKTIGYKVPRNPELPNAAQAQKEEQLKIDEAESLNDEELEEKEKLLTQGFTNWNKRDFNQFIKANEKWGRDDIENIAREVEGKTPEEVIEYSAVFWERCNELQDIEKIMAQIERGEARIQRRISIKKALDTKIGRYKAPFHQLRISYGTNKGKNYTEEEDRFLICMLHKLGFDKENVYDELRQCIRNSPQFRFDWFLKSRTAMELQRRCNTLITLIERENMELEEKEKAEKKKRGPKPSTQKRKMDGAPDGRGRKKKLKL

UniProt P51532, sequence (P51532 whole entry): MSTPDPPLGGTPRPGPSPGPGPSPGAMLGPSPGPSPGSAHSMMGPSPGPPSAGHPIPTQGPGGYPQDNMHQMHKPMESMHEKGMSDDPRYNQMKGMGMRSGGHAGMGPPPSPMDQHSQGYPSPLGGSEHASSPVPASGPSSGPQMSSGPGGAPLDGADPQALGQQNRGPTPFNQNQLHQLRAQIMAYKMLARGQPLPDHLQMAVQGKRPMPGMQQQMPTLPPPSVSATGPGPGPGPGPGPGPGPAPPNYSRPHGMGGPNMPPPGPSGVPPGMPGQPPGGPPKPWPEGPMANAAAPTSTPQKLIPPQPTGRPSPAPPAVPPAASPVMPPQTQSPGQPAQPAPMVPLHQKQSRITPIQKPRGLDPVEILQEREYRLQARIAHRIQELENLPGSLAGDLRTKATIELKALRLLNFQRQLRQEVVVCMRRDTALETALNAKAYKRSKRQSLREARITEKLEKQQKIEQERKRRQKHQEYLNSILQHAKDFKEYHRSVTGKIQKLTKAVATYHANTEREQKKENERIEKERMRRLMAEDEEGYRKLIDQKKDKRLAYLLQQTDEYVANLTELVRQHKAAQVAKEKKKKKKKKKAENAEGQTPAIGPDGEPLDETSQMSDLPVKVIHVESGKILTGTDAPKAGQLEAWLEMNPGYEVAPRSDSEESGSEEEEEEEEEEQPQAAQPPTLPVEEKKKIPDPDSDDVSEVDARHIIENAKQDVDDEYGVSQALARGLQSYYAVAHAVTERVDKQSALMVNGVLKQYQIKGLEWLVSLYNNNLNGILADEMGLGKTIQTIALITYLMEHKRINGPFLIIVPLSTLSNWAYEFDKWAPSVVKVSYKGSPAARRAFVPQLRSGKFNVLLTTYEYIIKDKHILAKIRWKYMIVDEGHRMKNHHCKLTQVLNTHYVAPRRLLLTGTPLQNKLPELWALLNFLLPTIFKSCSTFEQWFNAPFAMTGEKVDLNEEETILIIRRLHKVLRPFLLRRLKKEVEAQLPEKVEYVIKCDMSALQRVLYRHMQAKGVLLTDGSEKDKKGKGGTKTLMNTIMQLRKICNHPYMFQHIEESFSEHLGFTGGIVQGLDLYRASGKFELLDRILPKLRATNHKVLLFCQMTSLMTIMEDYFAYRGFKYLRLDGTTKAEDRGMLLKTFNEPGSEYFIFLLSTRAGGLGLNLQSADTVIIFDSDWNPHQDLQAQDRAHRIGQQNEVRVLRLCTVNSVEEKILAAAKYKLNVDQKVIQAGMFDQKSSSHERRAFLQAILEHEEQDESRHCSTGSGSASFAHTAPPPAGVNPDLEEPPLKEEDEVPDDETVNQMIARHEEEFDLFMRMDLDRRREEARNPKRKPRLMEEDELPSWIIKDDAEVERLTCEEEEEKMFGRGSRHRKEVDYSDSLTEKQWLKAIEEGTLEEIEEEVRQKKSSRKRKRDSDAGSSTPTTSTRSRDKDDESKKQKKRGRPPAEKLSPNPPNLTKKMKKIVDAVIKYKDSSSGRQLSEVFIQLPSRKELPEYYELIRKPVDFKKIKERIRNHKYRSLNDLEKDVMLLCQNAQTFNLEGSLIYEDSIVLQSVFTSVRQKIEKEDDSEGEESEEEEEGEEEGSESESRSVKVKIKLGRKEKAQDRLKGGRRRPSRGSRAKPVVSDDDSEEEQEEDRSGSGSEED
UniProt O00571, sequence (O00571 whole entry): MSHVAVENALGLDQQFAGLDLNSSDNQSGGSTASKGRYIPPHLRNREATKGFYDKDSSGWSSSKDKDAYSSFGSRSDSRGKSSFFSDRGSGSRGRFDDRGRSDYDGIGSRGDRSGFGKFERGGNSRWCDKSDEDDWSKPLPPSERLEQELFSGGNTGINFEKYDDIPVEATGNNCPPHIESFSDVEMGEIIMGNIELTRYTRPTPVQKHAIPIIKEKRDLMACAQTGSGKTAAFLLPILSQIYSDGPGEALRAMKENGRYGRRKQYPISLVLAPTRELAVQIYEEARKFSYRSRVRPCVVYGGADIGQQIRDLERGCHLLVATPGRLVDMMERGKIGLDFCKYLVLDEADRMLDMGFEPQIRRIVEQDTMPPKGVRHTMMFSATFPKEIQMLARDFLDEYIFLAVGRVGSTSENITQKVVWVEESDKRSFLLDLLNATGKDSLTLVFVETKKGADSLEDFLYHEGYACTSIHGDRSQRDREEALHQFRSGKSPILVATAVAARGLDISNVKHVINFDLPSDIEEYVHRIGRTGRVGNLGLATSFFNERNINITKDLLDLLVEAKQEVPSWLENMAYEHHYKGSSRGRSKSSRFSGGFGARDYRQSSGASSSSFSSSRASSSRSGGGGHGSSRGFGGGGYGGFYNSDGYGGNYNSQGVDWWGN
UniProt P35222, sequence (P35222 whole entry): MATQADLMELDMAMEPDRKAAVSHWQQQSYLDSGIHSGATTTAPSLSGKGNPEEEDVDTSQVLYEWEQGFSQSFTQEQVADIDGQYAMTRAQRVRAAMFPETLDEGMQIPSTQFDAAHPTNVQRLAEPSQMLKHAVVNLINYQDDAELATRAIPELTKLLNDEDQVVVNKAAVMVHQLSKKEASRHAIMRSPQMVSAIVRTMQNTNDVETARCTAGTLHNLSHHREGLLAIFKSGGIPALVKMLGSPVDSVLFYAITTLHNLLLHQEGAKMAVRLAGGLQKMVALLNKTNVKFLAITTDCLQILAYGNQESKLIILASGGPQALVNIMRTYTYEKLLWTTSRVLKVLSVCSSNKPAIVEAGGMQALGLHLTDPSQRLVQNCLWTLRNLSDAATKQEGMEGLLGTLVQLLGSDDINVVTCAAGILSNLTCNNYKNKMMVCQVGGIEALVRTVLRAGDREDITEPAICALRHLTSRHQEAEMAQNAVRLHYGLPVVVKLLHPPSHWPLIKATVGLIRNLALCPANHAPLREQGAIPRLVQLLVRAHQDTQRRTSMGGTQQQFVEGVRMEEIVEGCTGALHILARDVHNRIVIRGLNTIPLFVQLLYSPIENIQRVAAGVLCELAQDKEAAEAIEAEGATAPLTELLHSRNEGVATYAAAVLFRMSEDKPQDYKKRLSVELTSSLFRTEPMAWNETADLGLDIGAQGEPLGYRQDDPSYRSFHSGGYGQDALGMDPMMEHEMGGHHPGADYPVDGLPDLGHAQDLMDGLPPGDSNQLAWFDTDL

For the substance “TBX3-WT-BirA (from UniProt O15119) RRM del”, the other: SaintScore in assay [1] (WNT-OFF (10 nM LGK974)) came out at 1; in assay [1] (WNT-ON (10 µM CHIR99021)) it was 0.93; in assay [2] (WNT-OFF (10 nM LGK974)) it was 1; in assay [2] (WNT-ON (10 µM CHIR99021)) it was 0.67; in assay [3] (WNT-OFF (10 nM LGK974)), 1; in assay [3] (WNT-ON (10 µM CHIR99021)), 0.65. The other: SaintScore in assay [4] (WNT-OFF (10 nM LGK974)) was 0.33; in assay [4] (WNT-ON (10 µM CHIR99021)), 0.67; in assay [5] (WNT-OFF (10 nM LGK974)), 0.67; in assay [5] (WNT-ON (10 µM CHIR99021)), 0.67.

Consider “TBX3-WT-BirA (from UniProt O15119) NPF del”, for which the other: SaintScore in assay [1] (WNT-OFF (10 nM LGK974)) was 0; in assay [1] (WNT-ON (10 µM CHIR99021)) it was 0.67; in assay [2] (WNT-OFF (10 nM LGK974)), 0; in assay [2] (WNT-ON (10 µM CHIR99021)) it was 0.67; in assay [3] (WNT-OFF (10 nM LGK974)) it was 0.32; in assay [3] (WNT-ON (10 µM CHIR99021)), 0.71. The other: SaintScore in assay [4] (WNT-ON (10 µM CHIR99021)) is 0.67; in assay [5] (WNT-OFF (10 nM LGK974)), 0; in assay [5] (WNT-ON (10 µM CHIR99021)), 0.67.
